The source of these data is publication PMC10474464, “The mRNA binding-mediated self-regulatory function of small heat shock protein IbpA in γ-proteobacteria is conferred by a conserved arginine” (The Journal of Biological Chemistry, 2023).

Where a chain is given by its changes, count along the chain named. Numbers in names are those of the source.

Series [1] has as its target T1, Escherichia coli inclusion body-associated protein B (Escherichia coli, UniProt P0C058 1-142).
T1 construct: Small heat shock protein IbpB of Escherichia coli; also called IbpBEc; His-IbpBEc; source: purified with Ni-NTA agarose upon denaturation by 6 M urea
T1 sequence (looked up): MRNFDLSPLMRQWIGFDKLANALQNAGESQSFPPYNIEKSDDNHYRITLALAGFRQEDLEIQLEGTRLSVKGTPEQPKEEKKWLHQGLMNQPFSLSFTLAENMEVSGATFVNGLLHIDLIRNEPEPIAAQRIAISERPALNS
The experiment in a line: co-sedimentation; sucrose density gradient centrifugation: IbpAEc (3 μM) and IbpBEc (7 μM) in buffer F incubated at room temperature for 30 min, 10% to 30% (w/v) sucrose gradient; SDS-PAGE with 6 M urea and CBB staining. As to conditions: both partners purified.

Series [2] concerns the molecule itself. The experiment in a line: sucrose density gradient centrifugation; purified IbpA (3 μM, dimeric units) alone in buffer F (50 mM Hepes-KOH pH 7.6, 0.1 M KCl, 5 mM DTT, 20 mM Mg-acetate) on a 10% to 30% (w/v) sucrose gradient, SW 41 Ti, 35,000 rpm, 4 °C, 80 min; fractions by SDS-PAGE with Western blot (anti-IbpA) or CBB staining; oligomeric state. (In general: Immunoblotting shows a protein as a band on a membrane.)

B1: Escherichia coli inclusion body-associated protein A, wild type (natural protein, UniProt P0C054 1-137, looked up)
chain: MRNFDLSPLYRSAIGFDRLFNHLENNQSQSNGGYPPYNVELVDENHYRIAIAVAGFAESELEITAQDNLLVVKGAHADEQKERTYLYQGIAERNFERKFQLAENIHVRGANLVNGLLYIDLERVIPEAKKPRRIEIN
notes: Small heat shock protein IbpA of Escherichia coli, expressed from pCA24N-ibpAEc; also called IbpAEc; IbpAEc-WT; source: E. coli BW25113ΔAB, overexpressed (0.5 mM IPTG), purified (anion exchange chromatography)
On to B1, for which the binding result in series [1] and in series [2] was “binds” each time.

B2: Escherichia coli inclusion body-associated protein A, R93A mutant (natural protein, UniProt P0C054 1-137, looked up)
chain: B1 chain with R93A
notes: Small heat shock protein IbpA of Escherichia coli with R93A, made by site-directed mutagenesis of pCA24N-ibpAEc; also called IbpAEc-R93A; IbpA-R93A; source: E. coli BW25113ΔAB, overexpressed (0.5 mM IPTG), purified (anion exchange chromatography)
B2: the binding result in series [1] and in series [2] was “binds” each time.
